According to the supplement of paper PMC9876800:

Sequence of CHEK2, construct: Full length (O96017 whole entry, looked up): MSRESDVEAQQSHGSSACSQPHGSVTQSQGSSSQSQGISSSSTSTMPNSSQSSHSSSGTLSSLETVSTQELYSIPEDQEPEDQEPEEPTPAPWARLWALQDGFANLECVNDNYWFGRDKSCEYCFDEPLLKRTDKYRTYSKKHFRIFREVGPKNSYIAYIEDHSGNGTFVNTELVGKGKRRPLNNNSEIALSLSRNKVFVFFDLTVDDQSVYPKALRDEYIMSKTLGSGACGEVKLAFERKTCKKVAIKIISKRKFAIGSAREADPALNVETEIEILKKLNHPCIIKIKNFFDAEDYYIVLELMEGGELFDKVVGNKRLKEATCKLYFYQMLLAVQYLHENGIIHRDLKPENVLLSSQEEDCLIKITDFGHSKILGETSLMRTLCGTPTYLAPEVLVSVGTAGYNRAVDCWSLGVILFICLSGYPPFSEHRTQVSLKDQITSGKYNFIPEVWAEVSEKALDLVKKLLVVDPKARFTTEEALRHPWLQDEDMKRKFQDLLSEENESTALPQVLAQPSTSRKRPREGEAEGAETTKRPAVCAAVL
Sequence of CAMK1, construct: Full length (Q14012 whole entry, looked up): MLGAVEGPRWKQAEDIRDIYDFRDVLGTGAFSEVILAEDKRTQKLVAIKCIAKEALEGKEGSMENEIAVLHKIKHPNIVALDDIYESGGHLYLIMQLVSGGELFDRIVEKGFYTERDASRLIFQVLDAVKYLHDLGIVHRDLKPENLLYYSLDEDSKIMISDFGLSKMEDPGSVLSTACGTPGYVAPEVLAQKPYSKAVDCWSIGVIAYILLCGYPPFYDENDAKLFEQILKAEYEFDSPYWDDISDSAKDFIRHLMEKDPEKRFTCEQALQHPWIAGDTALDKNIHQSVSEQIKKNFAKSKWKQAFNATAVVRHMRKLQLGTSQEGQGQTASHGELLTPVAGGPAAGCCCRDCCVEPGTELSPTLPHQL
Sequence of MAP3K10, construct: aa1-449 (Q02779 1-449, looked up): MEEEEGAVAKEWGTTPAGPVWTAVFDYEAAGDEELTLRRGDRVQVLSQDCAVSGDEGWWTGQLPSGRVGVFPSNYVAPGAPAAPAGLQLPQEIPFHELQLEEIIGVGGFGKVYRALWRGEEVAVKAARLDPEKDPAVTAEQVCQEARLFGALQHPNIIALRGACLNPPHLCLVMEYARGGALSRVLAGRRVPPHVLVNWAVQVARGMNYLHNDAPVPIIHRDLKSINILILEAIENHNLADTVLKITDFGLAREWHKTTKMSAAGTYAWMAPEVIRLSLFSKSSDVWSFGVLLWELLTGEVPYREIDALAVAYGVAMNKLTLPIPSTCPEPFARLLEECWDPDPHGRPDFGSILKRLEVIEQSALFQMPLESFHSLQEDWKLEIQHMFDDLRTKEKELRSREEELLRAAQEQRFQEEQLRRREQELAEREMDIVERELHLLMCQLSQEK
Sequence of MAP4K3, construct: aa1-380 (Q8IVH8 1-380, looked up): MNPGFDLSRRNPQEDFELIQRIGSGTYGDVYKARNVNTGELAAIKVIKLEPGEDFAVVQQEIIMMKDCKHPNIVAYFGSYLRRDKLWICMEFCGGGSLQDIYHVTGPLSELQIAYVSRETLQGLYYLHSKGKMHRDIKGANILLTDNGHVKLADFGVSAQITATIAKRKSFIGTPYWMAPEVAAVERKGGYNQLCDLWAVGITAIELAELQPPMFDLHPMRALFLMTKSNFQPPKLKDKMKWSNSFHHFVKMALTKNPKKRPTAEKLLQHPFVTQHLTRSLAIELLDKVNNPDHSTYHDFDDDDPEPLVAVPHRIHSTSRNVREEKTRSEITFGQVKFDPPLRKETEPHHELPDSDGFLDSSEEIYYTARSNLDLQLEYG
Sequence of TTBK1, construct: Full length (Q5TCY1 whole entry, looked up): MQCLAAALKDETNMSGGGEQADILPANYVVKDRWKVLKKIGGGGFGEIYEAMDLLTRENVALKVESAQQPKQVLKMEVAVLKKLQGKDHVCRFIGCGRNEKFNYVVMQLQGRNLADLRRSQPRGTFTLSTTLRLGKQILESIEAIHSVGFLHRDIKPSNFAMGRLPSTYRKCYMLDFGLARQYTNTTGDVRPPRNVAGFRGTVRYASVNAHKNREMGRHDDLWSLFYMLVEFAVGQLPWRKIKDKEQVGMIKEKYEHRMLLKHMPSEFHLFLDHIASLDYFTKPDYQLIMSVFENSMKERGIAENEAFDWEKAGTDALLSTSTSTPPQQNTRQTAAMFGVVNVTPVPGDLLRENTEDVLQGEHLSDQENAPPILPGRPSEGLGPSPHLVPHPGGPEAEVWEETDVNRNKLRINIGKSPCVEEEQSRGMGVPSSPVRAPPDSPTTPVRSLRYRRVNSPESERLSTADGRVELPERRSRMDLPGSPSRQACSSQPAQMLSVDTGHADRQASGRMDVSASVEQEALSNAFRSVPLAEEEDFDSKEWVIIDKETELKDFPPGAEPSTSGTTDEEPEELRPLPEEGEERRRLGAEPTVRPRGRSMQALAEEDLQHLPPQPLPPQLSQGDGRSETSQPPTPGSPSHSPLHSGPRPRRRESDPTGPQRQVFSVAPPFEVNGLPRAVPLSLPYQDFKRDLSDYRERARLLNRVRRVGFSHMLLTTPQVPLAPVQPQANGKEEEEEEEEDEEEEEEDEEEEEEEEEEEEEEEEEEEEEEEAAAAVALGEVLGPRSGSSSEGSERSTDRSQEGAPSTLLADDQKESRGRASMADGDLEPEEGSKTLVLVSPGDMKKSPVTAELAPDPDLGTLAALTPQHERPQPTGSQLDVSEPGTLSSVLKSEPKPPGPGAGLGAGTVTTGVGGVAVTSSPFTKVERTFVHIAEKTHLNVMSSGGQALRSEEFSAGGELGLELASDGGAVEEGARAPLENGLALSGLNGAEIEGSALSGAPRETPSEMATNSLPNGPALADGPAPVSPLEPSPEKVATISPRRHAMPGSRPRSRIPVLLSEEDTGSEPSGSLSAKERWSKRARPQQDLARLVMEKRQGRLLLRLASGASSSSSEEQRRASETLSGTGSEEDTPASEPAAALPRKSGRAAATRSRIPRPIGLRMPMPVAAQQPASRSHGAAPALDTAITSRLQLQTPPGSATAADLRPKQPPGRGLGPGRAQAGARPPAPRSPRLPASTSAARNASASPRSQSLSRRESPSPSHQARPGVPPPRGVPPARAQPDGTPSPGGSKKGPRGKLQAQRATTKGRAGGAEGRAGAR
Sequence of EIF2AK1, construct: Full length (Q9BQI3 whole entry, looked up): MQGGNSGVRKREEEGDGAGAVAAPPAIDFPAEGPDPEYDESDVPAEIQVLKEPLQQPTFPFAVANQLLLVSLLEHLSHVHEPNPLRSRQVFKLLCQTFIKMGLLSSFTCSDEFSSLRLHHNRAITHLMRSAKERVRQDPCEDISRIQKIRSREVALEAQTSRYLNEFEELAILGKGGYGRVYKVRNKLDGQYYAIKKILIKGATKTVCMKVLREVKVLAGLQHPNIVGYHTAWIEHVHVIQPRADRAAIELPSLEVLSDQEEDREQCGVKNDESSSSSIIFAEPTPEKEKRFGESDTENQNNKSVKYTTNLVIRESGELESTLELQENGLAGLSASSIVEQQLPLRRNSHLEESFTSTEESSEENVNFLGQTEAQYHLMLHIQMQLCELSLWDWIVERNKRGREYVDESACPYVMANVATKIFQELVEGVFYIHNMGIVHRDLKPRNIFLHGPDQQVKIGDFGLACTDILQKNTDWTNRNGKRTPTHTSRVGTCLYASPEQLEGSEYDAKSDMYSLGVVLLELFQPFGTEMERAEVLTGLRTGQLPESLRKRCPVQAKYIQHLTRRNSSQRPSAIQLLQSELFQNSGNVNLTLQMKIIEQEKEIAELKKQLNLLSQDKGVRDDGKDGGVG
Sequence of MOK, construct: aa1-343 (Q9UQ07 1-343, looked up): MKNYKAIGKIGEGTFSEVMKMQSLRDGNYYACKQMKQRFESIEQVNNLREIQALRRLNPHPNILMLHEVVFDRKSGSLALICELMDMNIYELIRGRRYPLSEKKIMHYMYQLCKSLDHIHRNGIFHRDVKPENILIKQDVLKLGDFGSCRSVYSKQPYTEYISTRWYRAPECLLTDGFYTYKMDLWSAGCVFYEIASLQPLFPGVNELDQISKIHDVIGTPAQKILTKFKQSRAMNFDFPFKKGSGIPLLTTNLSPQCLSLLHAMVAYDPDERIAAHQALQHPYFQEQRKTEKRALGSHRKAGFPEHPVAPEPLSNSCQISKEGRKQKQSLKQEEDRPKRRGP

Each substance was assayed on peptide library, one residue held at a place counted from the S/T acceptor (assay: relative phosphorylation of the sub-library (ratio to the mean residue at this position); human; higher = residue favoured). Details: V fixed; at +3.
Procedure, shortened: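 Relative sub-library phosphorylation is the ratio of each sub-library's signal to the mean residue at that position. The signal came from phosphorimaging of spots on streptavidin membranes, quantified by densitometry, after purified recombinant kinases reacted with biotinylated degenerate peptide sub-libraries in 384-well plates. Reactions held 50 μM peptide and 50 μM ATP spiked with γ-32P-ATP for 90 min under kinase-specific conditions.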
With “CHEK2, construct: Full length (from UniProt O96017)” the relative phosphorylation was 0.848.
In the case of “MAP4K3, construct: aa1-380 (from UniProt Q8IVH8)”, the relative phosphorylation was 0.497.
Substance “CAMK1, construct: Full length (from UniProt Q14012)” has a relative phosphorylation of 0.663.
“MAP3K10, construct: aa1-449 (from UniProt Q02779)” gave a relative phosphorylation of 0.791.
In the case of “EIF2AK1, construct: Full length (from UniProt Q9BQI3)”, the relative phosphorylation was 0.733.
For “PKN3, construct: Full length (from UniProt Q6P5Z2)”, the relative phosphorylation was 0.807.

Same assay, conditions: V fixed; at +4
“MOK, construct: aa1-343 (from UniProt Q9UQ07)” was tested, and the relative phosphorylation was 0.801.
With “TTBK1, construct: Full length (from UniProt Q5TCY1)” the relative phosphorylation was 0.728.
For “CHEK2, construct: Full length (from UniProt O96017)”, the relative phosphorylation was 0.731.
“MAP4K3, construct: aa1-380 (from UniProt Q8IVH8)” showed a relative phosphorylation of 0.743.
Substance “CAMK1, construct: Full length (from UniProt Q14012)” has a relative phosphorylation of 0.732.
For “MAP3K10, construct: aa1-449 (from UniProt Q02779)”, the relative phosphorylation was 0.777.
For “EIF2AK1, construct: Full length (from UniProt Q9BQI3)”, the relative phosphorylation was 0.612.
“PKN3, construct: Full length (from UniProt Q6P5Z2)” showed a relative phosphorylation of 0.716.

Same assay, conditions: V fixed; at -1
“MOK, construct: aa1-343 (from UniProt Q9UQ07)” was tested, and the relative phosphorylation was 0.631.
Substance “TTBK1, construct: Full length (from UniProt Q5TCY1)” has a relative phosphorylation of 1.4.
Work on “CHEK2, construct: Full length (from UniProt O96017)” yielded a relative phosphorylation of 0.777.
In the case of “MAP4K3, construct: aa1-380 (from UniProt Q8IVH8)”, the relative phosphorylation was 0.362.
For “CAMK1, construct: Full length (from UniProt Q14012)”, the relative phosphorylation was 0.504.
“MAP3K10, construct: aa1-449 (from UniProt Q02779)” was tested, and the relative phosphorylation was 0.806.
Substance “EIF2AK1, construct: Full length (from UniProt Q9BQI3)” has a relative phosphorylation of 1.07.
Substance “PKN3, construct: Full length (from UniProt Q6P5Z2)” has a relative phosphorylation of 0.558.

Same assay, conditions: V fixed; at -2
“MOK, construct: aa1-343 (from UniProt Q9UQ07)” was tested, and the relative phosphorylation was 0.918.
“TTBK1, construct: Full length (from UniProt Q5TCY1)” showed a relative phosphorylation of 1.04.
“CHEK2, construct: Full length (from UniProt O96017)” gave a relative phosphorylation of 0.621.
With “MAP4K3, construct: aa1-380 (from UniProt Q8IVH8)” the relative phosphorylation was 0.815.
“CAMK1, construct: Full length (from UniProt Q14012)” gave a relative phosphorylation of 0.469.
“MAP3K10, construct: aa1-449 (from UniProt Q02779)” was tested, and the relative phosphorylation was 0.589.
In the case of “EIF2AK1, construct: Full length (from UniProt Q9BQI3)”, the relative phosphorylation was 0.58.
With “PKN3, construct: Full length (from UniProt Q6P5Z2)” the relative phosphorylation was 0.711.

Same assay, conditions: V fixed; at -3
Work on “MOK, construct: aa1-343 (from UniProt Q9UQ07)” yielded a relative phosphorylation of 0.441.
“TTBK1, construct: Full length (from UniProt Q5TCY1)” showed a relative phosphorylation of 1.02.
“CHEK2, construct: Full length (from UniProt O96017)” showed a relative phosphorylation of 0.205.
Work on “MAP4K3, construct: aa1-380 (from UniProt Q8IVH8)” yielded a relative phosphorylation of 0.529.
Substance “CAMK1, construct: Full length (from UniProt Q14012)” has a relative phosphorylation of 0.177.
Work on “MAP3K10, construct: aa1-449 (from UniProt Q02779)” yielded a relative phosphorylation of 0.665.
Work on “EIF2AK1, construct: Full length (from UniProt Q9BQI3)” yielded a relative phosphorylation of 0.731.
Work on “PKN3, construct: Full length (from UniProt Q6P5Z2)” yielded a relative phosphorylation of 0.496.

Same assay, conditions: V fixed; at -4
Substance “MOK, construct: aa1-343 (from UniProt Q9UQ07)” has a relative phosphorylation of 0.622.
“TTBK1, construct: Full length (from UniProt Q5TCY1)” showed a relative phosphorylation of 1.22.
“CHEK2, construct: Full length (from UniProt O96017)” gave a relative phosphorylation of 1.1.
With “MAP4K3, construct: aa1-380 (from UniProt Q8IVH8)” the relative phosphorylation was 0.695.
With “CAMK1, construct: Full length (from UniProt Q14012)” the relative phosphorylation was 1.01.
For “MAP3K10, construct: aa1-449 (from UniProt Q02779)”, the relative phosphorylation was 0.636.
Work on “EIF2AK1, construct: Full length (from UniProt Q9BQI3)” yielded a relative phosphorylation of 0.93.
Work on “PKN3, construct: Full length (from UniProt Q6P5Z2)” yielded a relative phosphorylation of 0.801.

Same assay, conditions: V fixed; at -5
“MOK, construct: aa1-343 (from UniProt Q9UQ07)” showed a relative phosphorylation of 0.622.
Work on “TTBK1, construct: Full length (from UniProt Q5TCY1)” yielded a relative phosphorylation of 1.17.
“CHEK2, construct: Full length (from UniProt O96017)” gave a relative phosphorylation of 1.39.
Substance “MAP4K3, construct: aa1-380 (from UniProt Q8IVH8)” has a relative phosphorylation of 0.833.
In the case of “CAMK1, construct: Full length (from UniProt Q14012)”, the relative phosphorylation was 0.676.
For “MAP3K10, construct: aa1-449 (from UniProt Q02779)”, the relative phosphorylation was 0.846.
“EIF2AK1, construct: Full length (from UniProt Q9BQI3)” showed a relative phosphorylation of 1.06.
With “PKN3, construct: Full length (from UniProt Q6P5Z2)” the relative phosphorylation was 1.07.

Same assay, conditions: W fixed; at +1
Substance “MOK, construct: aa1-343 (from UniProt Q9UQ07)” has a relative phosphorylation of 0.215.
“TTBK1, construct: Full length (from UniProt Q5TCY1)” gave a relative phosphorylation of 1.38.
Substance “CHEK2, construct: Full length (from UniProt O96017)” has a relative phosphorylation of 1.07.
In the case of “MAP4K3, construct: aa1-380 (from UniProt Q8IVH8)”, the relative phosphorylation was 1.14.
“CAMK1, construct: Full length (from UniProt Q14012)” showed a relative phosphorylation of 0.932.
In the case of “MAP3K10, construct: aa1-449 (from UniProt Q02779)”, the relative phosphorylation was 1.05.
“EIF2AK1, construct: Full length (from UniProt Q9BQI3)” was tested, and the relative phosphorylation was 1.02.
“PKN3, construct: Full length (from UniProt Q6P5Z2)” showed a relative phosphorylation of 0.606.

Same assay, conditions: W fixed; at +2
Work on “MOK, construct: aa1-343 (from UniProt Q9UQ07)” yielded a relative phosphorylation of 0.884.
“TTBK1, construct: Full length (from UniProt Q5TCY1)” gave a relative phosphorylation of 2.24.
For “CHEK2, construct: Full length (from UniProt O96017)”, the relative phosphorylation was 1.24.
Work on “MAP4K3, construct: aa1-380 (from UniProt Q8IVH8)” yielded a relative phosphorylation of 0.528.
“CAMK1, construct: Full length (from UniProt Q14012)” showed a relative phosphorylation of 1.36.
Substance “MAP3K10, construct: aa1-449 (from UniProt Q02779)” has a relative phosphorylation of 1.09.
“EIF2AK1, construct: Full length (from UniProt Q9BQI3)” gave a relative phosphorylation of 0.918.
In the case of “PKN3, construct: Full length (from UniProt Q6P5Z2)”, the relative phosphorylation was 0.683.

Same assay, conditions: W fixed; at +3
With “MOK, construct: aa1-343 (from UniProt Q9UQ07)” the relative phosphorylation was 0.985.
“TTBK1, construct: Full length (from UniProt Q5TCY1)” gave a relative phosphorylation of 1.19.
“CHEK2, construct: Full length (from UniProt O96017)” showed a relative phosphorylation of 1.44.
“MAP4K3, construct: aa1-380 (from UniProt Q8IVH8)” gave a relative phosphorylation of 0.893.
In the case of “CAMK1, construct: Full length (from UniProt Q14012)”, the relative phosphorylation was 1.38.
For “MAP3K10, construct: aa1-449 (from UniProt Q02779)”, the relative phosphorylation was 1.28.
“EIF2AK1, construct: Full length (from UniProt Q9BQI3)” showed a relative phosphorylation of 1.26.
Work on “PKN3, construct: Full length (from UniProt Q6P5Z2)” yielded a relative phosphorylation of 1.32.

Same assay, conditions: W fixed; at +4
With “MOK, construct: aa1-343 (from UniProt Q9UQ07)” the relative phosphorylation was 1.02.
With “TTBK1, construct: Full length (from UniProt Q5TCY1)” the relative phosphorylation was 1.75.
Work on “CHEK2, construct: Full length (from UniProt O96017)” yielded a relative phosphorylation of 1.17.
“MAP4K3, construct: aa1-380 (from UniProt Q8IVH8)” showed a relative phosphorylation of 0.999.
With “CAMK1, construct: Full length (from UniProt Q14012)” the relative phosphorylation was 0.911.
“MAP3K10, construct: aa1-449 (from UniProt Q02779)” was tested, and the relative phosphorylation was 0.923.
In the case of “EIF2AK1, construct: Full length (from UniProt Q9BQI3)”, the relative phosphorylation was 1.57.
